From PMC10269810, “RNA Encapsulation Mode and Evolutionary Insights from the Crystal Structure of Emaravirus Nucleoprotein”
Several values for one entry are separate records, joined by “and”; a condition that tells them apart may be missing. Identical values can stand only once.

How the values were obtained:
[1] = molecular target: fig mosaic virus nucleoprotein, full length (N^fl) (fig mosaic virus); test: SEC-MALS; RNA-free purified N^fl; conditions not given
[2] = molecular target: trypsin-treated fig mosaic virus nucleoprotein lacking the first 45 N-terminal residues (N^ΔN45) (fig mosaic virus); test: crystal structure; N^ΔN45 co-crystallized with 42-mer poly(U) ssRNA, 20% PEG 3350, 0.2 M magnesium formate pH 5.9, space group P2_(1)2_(1)2_(1)
[3] = molecular target: trypsin-treated fig mosaic virus nucleoprotein lacking the first 45 N-terminal residues (N^ΔN45) (fig mosaic virus); test: crystal structure; RNA-free N^ΔN45, hanging drop at 16°C, sodium formate pH 7.0, space group P2_(1), four molecules in the asymmetric unit
[4] = molecular target: FMV N full length (Nfl) (Fig mosaic virus (Fimoviridae, …, UniProt I2FFM8 1-315)); test: fluorescence polarization; RNA 1 uM; ITC: 20 mM Tris pH 7.4, 150 mM NaCl, 5% glycerol, 5 mM beta-ME, 25 C; FP: 1 uM RNA, 37 C 20 min incubation, buffer not stated (protein stock 20 mM Tris pH 7.5); details: protein: recombinant; tags: N-terminal 6xHis removed by TEV; chain copies: 4; label: 5' 6-carboxyfluorescein (FAM); single strand

Molecule: fig mosaic virus nucleoprotein, full length (N^fl) (natural protein)
- stoichiometry N [1]: 4 and 3 and 5

Molecule: trypsin-treated fig mosaic virus nucleoprotein lacking the first 45 N-terminal residues (N^ΔN45) (domain or fragment)
- stoichiometry N [2]: 4
- stoichiometry N [3]: 4

Molecule: UUUUUUUUUUUUUUUUUUUUUUUUUUUUUUUUUUUUUUUUUU (ssRNA) [poly(rU) 42-mer, FAM]
- Kd [4]: ~5 µM
